Experimental data as given in the Immune Epitope Database (IEDB).

Assays:
HLA-A*23:01 [1] = assay: IEDB peptide-MHC binding, purified MHC/competitive/fluorescence; filed as Kd, often an IC50 or EC50 that approximates it; ≥ and ≤ were set here for values at or beyond the usual limits of such assays
HLA-C*05:01 = assay: IEDB peptide-MHC binding, purified MHC/direct/fluorescence; filed as Kd, often an IC50 or EC50 that approximates it; ≥ and ≤ were set here for values at or beyond the usual limits of such assays; settings: source organism: Escherichia coli O157:H7 str. EDL933
HLA-C*03:03 = assay: as above; settings: source organism: Escherichia coli O157:H7 str. EDL933
HLA-B*51:01 = assay: IEDB peptide-MHC binding, purified MHC/competitive/fluorescence; filed as Kd, often an IC50 or EC50 that approximates it; ≥ and ≤ were set here for values at or beyond the usual limits of such assays
HLA-B*35:01 = assay: as above
HLA-B*07:02 = assay: IEDB peptide-MHC binding, purified MHC/direct/fluorescence; filed as Kd, often an IC50 or EC50 that approximates it; ≥ and ≤ were set here for values at or beyond the usual limits of such assays; settings: source organism: Mycobacterium tuberculosis variant bovis BCG str. Pasteur 1173P2
HLA-B*15:17 = assay: IEDB peptide-MHC binding, purified MHC/competitive/fluorescence; filed as Kd, often an IC50 or EC50 that approximates it; ≥ and ≤ were set here for values at or beyond the usual limits of such assays; settings: source organism: Escherichia coli 536
HLA-A*29:02 [2] = assay: as above; settings: source organism: Escherichia coli 536
HLA-A*02:19 [3] = assay: as above; settings: source organism: Escherichia coli 536
HLA-B*57:01 = assay: as above
HLA-B*18:01 = assay: as above
HLA-A*02:16 [4] = assay: as above; settings: source organism: Escherichia coli 536
HLA-B*39:01 = assay: as above
HLA-A*02:11 [5] = assay: as above; settings: source organism: Escherichia coli 536
HLA-A*68:02 [6] = assay: as above; settings: source organism: Escherichia coli 536
HLA-A*02:12 [7] = assay: as above; settings: source organism: Escherichia coli 536
HLA-A*02:03 [8] = assay: as above; settings: source organism: Escherichia coli 536
HLA-B*27:03 = assay: as above
HLA-A*02:01 = assay: as above
HLA-A*03:01 [9] = assay: as above; settings: source organism: Escherichia coli 536
HLA-B*46:01 = assay: as above
HLA-B*15:01 = assay: as above; settings: source organism: Escherichia coli 536
HLA-A*24:03 [10] = assay: as above; settings: source organism: Escherichia coli 536
HLA-A*69:01 = assay: as above
HLA-A*26:01 [11] = assay: as above; settings: source organism: Escherichia coli 536
HLA-A*02:19 [12] = assay: IEDB peptide-MHC binding, purified MHC/direct/fluorescence; filed as Kd, often an IC50 or EC50 that approximates it; ≥ and ≤ were set here for values at or beyond the usual limits of such assays
HLA-A*01:01 = assay: as above; settings: source organism: Ebola virus - Gabon (1994-1997)
HLA-A*23:01 [13] = assay: as above
HLA-A*02:16 [14] = assay: as above
HLA-A*02:11 [15] = assay: as above
HLA-A*68:02 [16] = assay: as above
HLA-A*02:12 [17] = assay: as above
HLA-A*02:03 [18] = assay: as above
HLA-A*03:01 [19] = assay: as above
HLA-A*24:03 [20] = assay: as above
HLA-A*26:01 [21] = assay: as above
HLA-A*29:02 [22] = assay: as above; settings: source organism: Orthohantavirus andesense
[23] = source organism: Mycobacterium tuberculosis C
[24] = source organism: Escherichia coli 536
[25] = source organism: Zaire ebolavirus
[26] = source organism: Orthohantavirus andesense

Measured: Kd

YVLNGYTEF
≤ 0.001 µM: HLA-A*23:01 [1]; source organism: Escherichia coli O157:H7 str. EDL933
0.06 µM: HLA-C*03:03
0.037 µM: HLA-C*05:01

WPVLGSEVL
0.223 µM: HLA-B*07:02
≤ 0.0001 µM: HLA-B*35:01; [23]
≥ 20 µM: HLA-B*51:01; [23]

QTDNDIWFW
≥ 20 µM: HLA-B*15:17 | HLA-A*29:02 [2] | HLA-A*02:19 [3] | HLA-A*23:01 [1]; [24] | HLA-B*18:01; [24] | HLA-A*02:16 [4] | HLA-B*51:01; [24] | HLA-B*39:01; [24] | HLA-A*02:11 [5] | HLA-A*68:02 [6] | HLA-A*02:12 [7] | HLA-A*02:03 [8] | HLA-B*27:03; [24] | HLA-A*02:01; [24] | HLA-A*03:01 [9] | HLA-B*46:01; [24] | HLA-B*15:01 | HLA-A*24:03 [10] | HLA-A*69:01; [24] | HLA-A*26:01 [11]
0.881 µM: HLA-B*57:01; [24]

TAAIMLASY
1.29 µM: HLA-A*26:01 [21]; source organism: Ebola virus - Gabon (1994-1997)
0.0002 µM: HLA-B*35:01; [25]
≥ 20 µM: HLA-B*51:01; [25] | HLA-B*39:01; [25] | HLA-B*27:03; [25] | HLA-A*02:01; [25] | HLA-A*69:01; [25] | HLA-A*02:19 [12]; [25] | HLA-A*01:01 | HLA-A*23:01 [13]; [25] | HLA-A*02:16 [14]; [25] | HLA-A*02:11 [15]; [25] | HLA-A*68:02 [16]; [25] | HLA-A*02:12 [17]; [25] | HLA-A*02:03 [18]; [25] | HLA-A*03:01 [19]; [25] | HLA-A*24:03 [20]; [25]

DAVEDFLAF
≤ 0.0001 µM: HLA-B*35:01; [26]
≥ 20 µM: HLA-B*57:01; [26] | HLA-B*18:01; [26] | HLA-B*51:01; [26] | HLA-B*39:01; [26] | HLA-B*27:03; [26] | HLA-A*02:01; [26] | HLA-B*46:01; [26] | HLA-A*69:01; [26] | HLA-A*29:02 [22] | HLA-A*02:19 [12]; [26] | HLA-A*23:01 [13]; [26] | HLA-A*02:16 [14]; [26] | HLA-A*02:11 [15]; [26] | HLA-A*68:02 [16]; [26] | HLA-A*02:12 [17]; [26] | HLA-A*02:03 [18]; [26] | HLA-A*03:01 [19]; [26] | HLA-A*24:03 [20]; [26]
0.0126 µM: HLA-A*26:01 [21]; [26]
